Laboratory results from US20170152292A1 (FONDATION THE ARK, published 2017).
“And” between values parts separate entries of the source, which are not always exact repeats. Equal values may be shown once. Bridges are numbered along the chain shown (N, C = ends). Where no end group is shown, it is not given here. [ ]: non-standard residue; d: D form. R8 = C=CCCCCCC[C@@](C)(N)C(=O)O; S5 = C=CCCC[C@](C)(N)C(=O)O

Columns and labels:
[1] = biological target: monomeric N protein NK170AR185A-His (N^mono) (human respiratory syncytial virus (HRSV)) (UniProt P03418); test: SPR, GST-P[1-40] mutant captured on anti-GST antibody, N^mono injected
[2] = biological target: monomeric N protein NK170AR185A-His (N^mono) (human respiratory syncytial virus (HRSV)) (UniProt P03418); test: SPR (Proteon XPR36): GST-P[1-40] mutant captured on anti-GST antibody, N^mono injected, steady-state fit
[3] = biological target: monomeric N protein NK170AR185A-His (N^mono) (human respiratory syncytial virus (HRSV)) (UniProt P03418); test: SPR (ProteOn XPR36), GST-P[1-40] captured on anti-GST antibody, N^mono injected, steady-state fit; upper end of the range 4-5 µM
[4] = biological target: monomeric N protein NK170AR185A-His (N^mono) (human respiratory syncytial virus (HRSV)) (UniProt P03418); test: SPR (ProteOn XPR36), GST-P[1-40] captured on anti-GST antibody, N^mono injected, steady-state fit; lower end of the range 4-5 µM
[5] = biological target: RSV nucleoprotein N, wild type (N^0 form in cells) (human respiratory syncytial virus (HRSV)) (UniProt P03418); test: cell-based or functional assay
[6] = biological target: T1, monomeric N protein NK170AR185A-His (N^mono) (human respiratory syncytial virus (HRSV), UniProt P03418 1-391); test: fluorescence polarization competition: stapled peptide titrated against FAM-P(1-40) on recombinant N^mono
T1 construct: also called NK170AR185A-His protein; recombinant N^mono
T1 sequence: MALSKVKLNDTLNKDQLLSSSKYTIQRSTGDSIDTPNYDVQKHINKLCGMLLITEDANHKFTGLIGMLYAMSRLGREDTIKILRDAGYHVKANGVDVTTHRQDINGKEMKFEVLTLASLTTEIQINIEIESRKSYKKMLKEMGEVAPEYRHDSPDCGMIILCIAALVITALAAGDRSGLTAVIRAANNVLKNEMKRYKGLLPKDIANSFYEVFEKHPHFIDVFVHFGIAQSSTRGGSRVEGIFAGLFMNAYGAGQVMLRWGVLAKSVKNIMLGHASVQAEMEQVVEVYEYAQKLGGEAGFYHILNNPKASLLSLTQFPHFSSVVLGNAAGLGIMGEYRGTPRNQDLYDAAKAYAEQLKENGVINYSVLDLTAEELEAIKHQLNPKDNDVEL

Q: Which results are given for “GST-P[1-40] E2A (from UniProt P12579 1-40)”?
A: Kd [1]: 1.9 µM; fold increase of affinity against wild type GST-P[1-40] [1]: 2 fold

Q: With “GST-P[1-40] E7A (from UniProt P12579 1-40)” as the molecule, how does the Kd [2] read?
A: The Kd was 11.1 µM.

Q: What about the Kd [1] of the same molecule?
A: The Kd was > 10 µM and < 20 µM.

Q: For “GST-P[1-40] E22A (from UniProt P08515 1-218; P12579 1-40)”, which Kd [2] is on record?
A: Its Kd is 7.49 µM.

Q: What does the source list for “GST-P[1-40] F4A (from UniProt P12579 1-40)”?
A: Kd [2]: 13.8 µM; Kd [1]: > 10 µM and < 20 µM

Q: “GST-P[1-40] F8A (from UniProt P12579 1-40)” was tested. Which Kd [1] did it give?
A: Its Kd is 41 µM.

Q: What does the source list for “GST-P[1-40] G10A (from UniProt P12579 1-40)”?
A: Kd [2]: 5.1 µM; Kd [1]: > 5 µM and < 10 µM

Q: Which results are given for “GST-P[1-40] G26A (from UniProt P12579 1-40)”?
A: Kd [1]: 2.6 µM; fold increase of affinity against wild type GST-P[1-40] [1]: 2 fold

Q: For “GST-P[1-40] H9A (from UniProt P12579 1-40)”, which Kd [2] is on record?
A: The Kd was 4 µM.

Q: “GST-P[1-40] I24A (from UniProt P12579 1-40)” was tested. Which Kd [2] did it give?
A: Its Kd is 16.4 µM.

Q: What about the Kd [1] of the same molecule?
A: The Kd was > 10 µM and < 20 µM.

Q: How did the Kd [2] turn out when “GST-P[1-40] K3A (from UniProt P12579 1-40)” was run?
A: Its Kd is 3.49 µM.

Q: With “GST-P[1-40] K25A (from UniProt P12579 1-40)” as the molecule, how does the Kd [2] read?
A: Its Kd is 7.77 µM.

Q: And the Kd [1]?
A: The Kd was > 5 µM and < 10 µM.

Q: Which Kd [2] does the source give for “GST-P[1-40] L21A (from UniProt P08515 1-218; P12579 1-40)” here?
A: Its Kd is 17.6 µM.

Q: “GST-P[1-40] P6A (from UniProt P12579 1-40)” was tested. Which Kd [2] did it give?
A: Its Kd is 4.89 µM.

Q: Which Kd [2] does the source give for “GST-P[1-40] S23A (from UniProt P12579 1-40)” here?
A: Its Kd is 4.5 µM.

Q: Which Kd [3] does the source give for “GST-P[1-40] wild type (from UniProt P12579 1-40)” here?
A: The Kd was less than 5 µM.

Q: What about the Kd [4] of the same molecule?
A: Its Kd is greater than 4 µM.

Q: “RSV phosphoprotein P E7A (full length, plasmid pP) (from UniProt P12579 1-241)” was tested. Which luciferase activity in the HRSV minigenome replication assay [5] did it give?
A: The luciferase activity in the HRSV minigenome replication assay was 50 % reduction.

Q: With “RSV phosphoprotein P F4A (full length, plasmid pP) (from UniProt P12579 1-241)” as the molecule, how does the luciferase activity in the HRSV minigenome replication assay [5] read?
A: Its luciferase activity in the HRSV minigenome replication assay is 50 % reduction.

Q: And the polymerase activity in the HRSV minigenome replication assay [5]?
A: Its polymerase activity in the HRSV minigenome replication assay is 80 % reduction.

Q: For “RSV phosphoprotein P F8A (full length, plasmid pP) (from UniProt P12579 1-241)”, which luciferase activity in the HRSV minigenome replication assay [5] is on record?
A: The luciferase activity in the HRSV minigenome replication assay was 50 % reduction.

Q: What about the polymerase activity in the HRSV minigenome replication assay [5] of the same molecule?
A: The polymerase activity in the HRSV minigenome replication assay was 80 % reduction.

Q: Which results are given for “RSV phosphoprotein P F20A (full length, plasmid pP) (from UniProt P12579 1-241)”?
A: luciferase activity in the HRSV minigenome replication assay [5]: 50 % reduction; polymerase activity in the HRSV minigenome replication assay [5]: 80 % reduction

Q: What does the source list for “RSV phosphoprotein P G10A (full length, plasmid pP) (from UniProt P12579 1-241)”?
A: luciferase activity in the HRSV minigenome replication assay [5]: 50 % reduction; polymerase activity in the HRSV minigenome replication assay [5]: 80 % reduction

Q: How did the luciferase activity in the HRSV minigenome replication assay [5] turn out when “RSV phosphoprotein P I24A (full length, plasmid pP) (from UniProt P12579 1-241)” was run?
A: The luciferase activity in the HRSV minigenome replication assay was 50 % reduction.

Q: With “RSV phosphoprotein P K25A (full length, plasmid pP) (from UniProt P12579 1-241)” as the molecule, how does the luciferase activity in the HRSV minigenome replication assay [5] read?
A: Its luciferase activity in the HRSV minigenome replication assay is 50 % reduction.

Q: “RSV phosphoprotein P L21A (full length, plasmid pP) (from UniProt P12579 1-241)” was tested. Which luciferase activity in the HRSV minigenome replication assay [5] did it give?
A: Its luciferase activity in the HRSV minigenome replication assay is 50 % reduction.

Q: Does Ac-EDANNKAT[R8]FLESIK[S5]KFAS (staple 9-16) [HEVS108] bind [6]?
A: Result: no binding
